Measurements published in paper PMC6097932 (Molecular cell, 2018).

Target: the molecule itself
Assay: SEC

B1: FANCA-WT (natural protein, human, UniProt O15360 1-1455, looked up)
chain: MSDSWVPNSASGQDPGGRRRAWAELLAGRVKREKYNPERAQKLKESAVRLLRSHQDLNALLLEVEGPLCKKLSLSKVIDCDSSEAYANHSSSFIGSALQDQASRLGVPVGILSAGMVASSVGQICTAPAETSHPVLLTVEQRKKLSSLLEFAQYLLAHSMFSRLSFCQELWKIQSSLLLEAVWHLHVQGIVSLQELLESHPDMHAVGSWLFRNLCCLCEQMEASCQHADVARAMLSDFVQMFVLRGFQKNSDLRRTVEPEKMPQVTVDVLQRMLIFALDALAAGVQEESSTHKIVRCWFGVFSGHTLGSVISTDPLKRFFSHTLTQILTHSPVLKASDAVQMQREWSFARTHPLLTSLYRRLFVMLSAEELVGHLQEVLETQEVHWQRVLSFVSALVVCFPEAQQLLEDWVARLMAQAFESCQLDSMVTAFLVVRQAALEGPSAFLSYADWFKASFGSTRGYHGCSKKALVFLFTFLSELVPFESPRYLQVHILHPPLVPGKYRSLLTDYISLAKTRLADLKVSIENMGLYEDLSSAGDITEPHSQALQDVEKAIMVFEHTGNIPVTVMEASIFRRPYYVSHFLPALLTPRVLPKVPDSRVAFIESLKRADKIPPSLYSTYCQACSAAEEKPEDAALGVRAEPNSAEEPLGQLTAALGELRASMTDPSQRDVISAQVAVISERLRAVLGHNEDDSSVEISKIQLSINTPRLEPREHMAVDLLLTSFCQNLMAASSVAPPERQGPWAALFVRTMCGRVLPAVLTRLCQLLRHQGPSLSAPHVLGLAALAVHLGESRSALPEVDVGPPAPGAGLPVPALFDSLLTCRTRDSLFFCLKFCTAAISYSLCKFSSQSRDTLCSCLSPGLIKKFQFLMFRLFSEARQPLSEEDVASLSWRPLHLPSADWQRAALSLWTHRTFREVLKEEDVHLTYQDWLHLELEIQPEADALSDTERQDFHQWAIHEHFLPESSASGGCDGDLQAACTILVNALMDFHQSSRSYDHSENSDLVFGGRTGNEDIISRLQEMVADLELQQDLIVPLGHTPSQEHFLFEIFRRRLQALTSGWSVAASLQRQRELLMYKRILLRLPSSVLCGSSFQAEQPITARCEQFFHLVNSEMRNFCSHGGALTQDITAHFFRGLLNACLRSRDPSLMVDFILAKCQTKCPLILTSALVWWPSLEPVLLCRWRRHCQSPLPRELQKLQEGRQFASDFLSPEAASPAPNPDWLSAAALHFAIQQVREENIRKQLKKLDCEREELLVFLFFFSLMGLLSSHLTSNSTTDLPKAFHVCAAILECLEKRKISWLALFQLTESDLRLGRLLLRVAPDQHTRLLPFAFYSLLSYFHEDAAIREEAFLHVAVDMYLKLVQLFVAGDTSTVSPPAGRSLELKGQGNPVELITKARLFLLQLIPRCPKKSFSHVAELLADRGDCDPEVSAALQSRQQAAPDADLSQEPHLF
- stoichiometry N: 2
